Data taken from patent publication US20200181605A1 (SHANGHAI INSTITUTES FOR BIOLOGICAL SCIENCES CHINESE ACADEMY …, published 2020).

Target: T1, endogenous Brd4 protein of untargeted androgenetic haploid embryonic stem cells (NC) (mouse, UniProt Q9ESU6 1-1400, limits assumed)
T1 construct: Endogenous, untagged; a mixture of the large and small isoforms in the cell lysate; also called Brd4 large protein (about 250 kDa); Brd4 small protein (110/120 kDa)
Test: Co-IP with Brd4 antibody-coupled beads, western blot

B1: CDK9 (enzyme, UniProt Q99J95 1-372, looked up)
chain: MAKQYDSVECPFCDEVTKYEKLAKIGQGTFGEVFKAKHRQTGQKVALKKVLMENEKEGFPITALREIKILQLLKHENVVNLIEICRTKASPYNRCKGSIYLVFDFCEHDLAGLLSNVLVKFTLSEIKRVMQMLLNGLYYIHRNKILHRDMKAANVLITRDGVLKLADFGLARAFSLAKNSQPNRYTNRVVTLWYRPPELLLGERDYGPPIDLWGAGCIMAEMWTRSPIMQGNTEQHQLALISQLCGSITPEVWPNVDKYELFEKLELVKGQKRKVKDRLKAYVRDPYALDLIDKLLVLDPAQRIDSDDALNHDFFWSDPMPSDLKGMLSTHLTSMFEYLAPPRRKGSQITQQSTNQSRNPATTNQTEFERVF
notes: Endogenous protein co-precipitated from mouse ES cell lysate
Does B1 bind?
Result: binds
